# Source: PMC7235859, “Structural and Functional Peculiarities of α-Crystallin” (Biology, 2020)
# B1: native α-crystallin from bovine eye lens (complex)
# chain 1: MDIAIQHPWFKRTLGPFYPSRLFDQFFGEGLFEYDLLPFLSSTISPYYRQSLFRTVLDSGISEVRSDRDKFVIFLDVKHFSPEDLTVKVQEDFVEIHGKHNERQDDHGYISREFHRRYRLPSNVDQSALSCSLSADGMLTFSGPKIPSGVDAGHSERAIPVSREEKPSSAPSS
# chain 2: MDIAIHHPWIRRPFFPFHSPSRLFDQFFGEHLLESDLFPASTSLSPFYLRPPSFLRAPSWIDTGLSEMRLEKDRFSVNLDVKHFSPEELKVKVLGDVIEVHGKHEERQDEHGFISREFHRKYRIPADVDPLAITSSLSSDGVLTVNGPRKQASGPERTIPITREEKPAVTAAPKK
# notes: αA-crystallin (HSPB4), bovine, isolated from eye lens as part of native α-crystallin; αB-crystallin (HSPB5), bovine, isolated from eye lens as part of native α-crystallin; Hetero-oligomeric mixture of αA- and αB-crystallin that was not separated; The number of subunits and the αA:αB ratio were not measured here (3:1 and about 42 monomers are cited); also called natural α-crystallin; authentic …
# Molecular target: the molecule itself
# Assay: negative-stain electron microscopy; 0.2 mg/mL, incubated 30 min at 37 °C in 20 mM Tris-HCl pH 7.5, 100 mM NaCl, 1 mM EDTA; 1% uranyl acetate; preparations from cortex, from nucleus and from Sigma; 12–14 nm particles used for 3D reconstruction
protein,measurement,value
B1,binding result,binds
